Here are results for one protein from patent US20200239537.

The data set addresses T1, apelin-17 (2).
T1 chain: KFRRQRPRLSHKGPMPF

B1: recombinant human neprilysin (rhNEP, Sino Biological) (protein)
chain: YDDGICKSSDCIKSAARLIQNMDATTEPCTDFFKYACGGWLKRNVIPETSSRYGNFDILRDELEVVLKDVLQEPKTEDIVAVQKAKALYRSCINESAIDSRGGEPLLKLLPDIYGWPVATENWEQKYGASWTAEKAIAQLNSKYGKKVLINLFVGTDDKNSVNHVIHIDQPRLGLPSRDYYECTGIYKEACTAYVDFMISVARLIRQEERLPIDENQLALEMNKVMELEKEIANATAKPEDRNDPMLLYNKMTLAQIQNNFSLEINGKPFSWLNFTNEIMSTVNISITNEEDVVVYAPEYLTKLKPILTKYSARDLQNLMSWRFIMDLVSSLSRTYKESRNAFRKALYGTTSETATWRRCANYVNGNMENAVGRLYVEAAFAGESKHVVEDLIAQIREVFIQTLDDLTWMDAETKKRAEEKALAIKERIGYPDDIVSNDNKLNNEYLELNYKEDEYFENIIQNLKFSQSKQLKKLREKVDKDEWISGAAVVNAFYSSGRNQIVFPAGILQPPFFSAQQSNSLNYGGIGMVIGHEITHGFDDNGRNFNKDGDLVDWWTQQSASNFKEQSQCMVYQYGNFSWDLAGGQHLNGINTLGENIADNGGLGQAYRAYQNYIKKNGEEKLLPGLDLNHKQLFFLNFAQVWCGTYRPEYAVNSIKTDVHSPGNFRIIGTLQNSAEFSEAFHCRKNSYMNPEKKCRVW
Take B1: the Km (in general, the concentration of substrate that gives half-maximal velocity) was 190 µM; the kcat (1/S) is 3.4 1/S; the kcat/Km (1/MS) is 18000 1/MS.
